Experiment: soluble on expression in E. coli; label from the status in PepcDB or PDB records
For “MSLQIHALFPTAVATAQLRLDPLEMAAQLQTLLMLRGADEGNPNSGCAWTGDLNGVWQLHRHPDFSGMTDRVVEQAWAYLSAVGFDQAKLALHVQRCWPVLSDWDQMVGRHHHPNAHLSAVLYLSGSGSGEDGVLRIHAPSQPNELVPGSAAGHGGPIAAGHPLNQPHWDLAPQPGLLVLFPSRLDHSVLANGDPELLRCSISFDFVLTAPVDGDPPEYLAPHPSLWTPQPLEVNEGHHHHHH”, the “soluble on expression in E. coli” value was “soluble”. In the case of “MSLQMYAGWRVVVDKNCIKIVSSNLAAQKLIEKQHNARLDTIAAKQQKVELYSVSMATMKELYKLSMQNISGFGTESLYYKEIGSCALDIIRNVPELIKTVSKAKFTNQLYCLTELGGLVMETQQLVGNFVNIVNNAKIPNPLKGEGTAERKSDGYNILDRYERMSLANSIYTNLNEIRYKVDGMMLMAQYATLNDLCFAINPEGWANVMTMRNQVDGLVSDWNGLVATNEGHHHHHH”, the “soluble on expression in E. coli” value was “soluble”. In the case of “MSLQRARCYLIGETAVVLELEPPVTLASQKRIWRLAQRLVDMPNVVEAIPGMNNITVILRNPESLALDAIERLQRWWEESEALEPESRFIEIPVVYGGAGGPDLAVVAAHCGLSEKQVVELHSSVEYVVWFLGFQPGFPYLGSLPEQLHTPRRAEPRLLVPAGSVGIGGPQTGVYPLATPGGWQLIGHTSLSLFDPARDEPILLRPGDSVRFVPQKEGVCEGHHHHHH”, the “soluble on expression in E. coli” value was “not soluble”. For “MSLQTFVIVGHVIPNNDMSPTLNKGDRVIVNKIKVTFNQLNNGDIITYRRGNEIYTSRIIAKPGQSMAFRQGQLYRDDRPVDASYAKNRKIKDFSLRNFKELDGDIIPPNNFVVLNDHDNNQHDSRQFGLIDKKDIIGNISLRYYPFSKWTIQFKSEGHHHHHH”, the “soluble on expression in E. coli” value was “soluble”. For “MSLQTPDTATTAPYLLAGAPTFDLSISQFREDFNSQNPSLPLNEFRAIDSSPDKANLTRAASKINENLYASTALERGTLKIKSIQMTWLPIQGPEQKAAKAKAQEYMAAVIRTLTPLMTKTQSQKKLQSLLTAGKNKRYYTETEGALRYVVADNGEKGLTFAVEPIKLALSESLEGLNKEGHHHHHH”, the “soluble on expression in E. coli” value was “soluble”. In the case of “MSLQTSPDMFINRELSWLRFNSRVLDQCSKNLPLLEKLKFIAIYCTNLDEFYMIRVAGLKQLFSAGVNASSSDEMTPLQQLKAIRKYLHQEKELLERYFNEITSELEKENLFIKHYENLDENLKQKCDEYFFSNIFPVIVPIAVDATHPFPHLNNLSFSLAVKICDKAHPELVKFGMIRIPRVLPRFYEVSANIYVPIESIVHQHAEEIFPGYKLLASAAFRVTRNADMVIEEEEADDFMMILEQGLKLRRKGAFVRLQIQKDADEQIVEFLNTHMKIFHKDVYEYSILLNLPSLWQIAGNKTFTHLLSPLYTPKTLPPFDENLSIFDAVEKEDILIIQPFESFDPVYKFIKEASKDPEVISIRMTLYRVEKNSNIVQALIDAASDGKQVTVMVELKARFDEENNLHWAKALENAGAHVIYGITGFKVHAKVSQVIRKQGDKLKFYMHLSTGNYNASSAKIYTDVSYFTSKAEFARDTTSFFHILSGFSKNRRLQTLSMSPNQIKEKVLEMIRIETSKKNEGVIVAKMNSLVDSDIIQALYEASMEGVQIDLIIRGICCLKPDEEYSKNIRVRSIIGKYLEHARVFYFKHSEPNYFISSADWMPRNLERRLELMTPIYDERSKAKLAQFLRLQLSDNVLAYELKNNGEYEKIPSSEKIIDSQQTLEEYVSKIYKTLKKDTDQSRATHLASKLFKENEGHHHHHH”, the “soluble on expression in E. coli” value was “soluble”. With “MSLQVLDRVELYLVKTPLPAPHAPSWIPGTIRTHVSMCIVRFITDDGVEGWSGFPAAGRERAGLGDLLAGLFLGQEAGDIDKLSERIQIMAAGGNFNWWLEPAFWDIKAKSAGLPLYKLLGGTDDRIRLYASSGELRDPGARREEAEARLAEGFDTMKIRVHDFDEAVDIDHISDIARHMQGRMRISVDCNQAFRLTQNGDAPLWSLDRAKRFVDAAADVGLAWVEEPLFGEWHEEIARLTTYSRVPVAGGELHVMGYRELARMMKMGCYNIFQPDAMWAGGITQCLKVAALCWQEGIRFTPHCWSNGFGFIANAHVFAASGFAGEELFEYPLSPPGWTPEGRDQIFSEPFLHENGWFAMPQTPGLGFEINQETLEKHGQCFFRASRNSTHWMPEALPAEGHHHHHH” the “soluble on expression in E. coli” value was “soluble”. In the case of “MSLQYFKVRDEIRSMVSDSVDEIVDGVSKTTAEVINGRKSIAQYATSLIENNPEPDNVRTIISQPLIKNTFLLVGFGLEKDGSNINNDPSWNPGPTWDPRVRPWYKDAKNAGKLVITAPYADSASGEILVSVATPVKDSATGQFLGSIFYDVSLAELAELVNEVKLFDAGYVFIVSEDGTTIAHPKKEFNGKPMSEFLGESKINVDTHQVIINGKPYAVSFSDVEGEDWYVGVVIDEEIAYAALDELRRSEGHHHHHH”, the “soluble on expression in E. coli” value was “soluble”. In the case of “MSLRASVAATKQKRFVAVDIETTGLNTESDQILSIGAVKHDGIEFYRLIKQDIDVPKQIVELTGITSEMLSKEGVPLQDALEELTDFVGNVPIVGYNFRFDSVFLNRDYRKCGMQELKNEIKDLLPVVKRREKFLDNYKLQTVLSNYGIENKVPHNAVSDARATKELAMKLIKNRILVIEGHHHHHH”, the “soluble on expression in E. coli” value was “soluble”. For “MSLRDAKTWFTDTVLKDQNGRELRFYSDVLKDKVVMLNVIFTHCTDACPLITRKLREVREAMGPALAAQVTFVSISSDPLNDTPEALKAFAAKQGVDGPNWLFLTGDKANVDLVLGRIGQFLPSPEQHSTQLIAGDVAGKRWSKIRPDAPPAAIAQRMQLLTQPLAGREGHHHHHH”, the “soluble on expression in E. coli” value was “soluble”. For “MSLRGLRGRSFTIGVLLIDIRNPFLPEVIAGVNEVLGPSHYQAMIGVSDARVQLETSLIESMIDYKMDGLILVAPRLPSEILATFAVQIPIVAVGYHDASATAFDTVNAE”, the “soluble on expression in E. coli” value was “soluble”. With “MSLRGRTSTLKVAILCFEKDRPKLEALKEILGRSYEVEFVDYSKDVWDDVLQYDCIVAYLASGIVVRGICGRLRGKWKDPAVIVLDKPLKHAVVMLGGHHGGNEVAKKLEEAGLKAVITTAMEFTEGYSVGVGFRKNATADEILEAIAMALEEVGGRMEEIRVISTVDAKRDSAIVEVANRLKRPLIFVRAEEINSMDIRETKAVKIGVKNVAEACAIYASNSGELILPKRVYGGVTVAIAWEGHHHHHH” the “soluble on expression in E. coli” value was “soluble”. For “MSLRIAVVGATGRIGSKLTRTLLGAGHQVKALSRGGAALEALVEAGAEPFLGSFDTGAGALDTFFQDVEAAFLMVKTDWNNIEGHYPAVAQRFVDALRGSPVKLAVSLSAMGSDVDGKTGHFELFHHLDQRLNELNDIDMVHLRAAWFMENTLAWTASVAKYGRLAWFYEPDLKMPWVATDDIAGLAAKELTNPTGDHRVIRETGSEDLTMNELAAMIGREIGKPVEYRFIDRGRKEIENEYLARFGTPEHWLDDSRSADALNHGVVRFQGGDDVRPVLPTTMEAFLKTIWTPRYLEALASEEGHHHHHH”, the “soluble on expression in E. coli” value was “soluble”. With “MSLRIFLCGCVHGSWEVVVNEVNKLVAKGTKIDLIIVAGDTESFRSKSDLESYNYQRQNHDLGTFHKLVSGELKLPCKMLMIGGNNEVGDMIFQLPFGGWVTPDIFFAGINSQIYFGDLLITCQSGIMNGQDYHKCISEKFPVRGCDTHLILHIREVSIFQLYGLKNVPLFVSHEWPSGIPKQYRNIPRMQFYAKSDDKNDFGCPGFVKLLNKHRPKKWYAAHLHVRFDCTLKNGTKFTGVPKVIDKRYKWYELEEYNCNPAGGFKFSGEWINIVKNTERFVKNPKLLQNLDWDEEWRKIYETMNTEDFPEKVDVMEYNDDYQIQTKKFCDSYQIYNPYKEGHHHHHH” the “soluble on expression in E. coli” value was “soluble”. For “MSLRIIVVGGGKVGTALCRSLVAEKHDVVLIEKKENVLKRVTKQHDIMGIVGNGANYKILEQAEVKNCDIFIAITDRDEVNMISAVLAKKMGAKETVVRMRNPEYSNPYFKDKNFLGFSSVVNPELLAAQYIANTIEFPNATSVEHFANGRVMLMEFKILEGNKLCHTSMSQIRKKFGNIVICAIERDGKLIIPDGDATIQVKDKIFVTGNRIEMILFHNYVKNKVVKNLMVIGAGRIAYYLLNILKNTNTHVKLVELNQEQAEYFSQEFPNVPVVHGDGTAKNILLEESVTSFDAVATLTGVDEENIITSMFLESIGIPKNITKVNRTSLLEIIDDKQLSSIITPKRIAVDHVMHFVRGRVNAQDSNLEAMHHIANDRIETLQFEIKETSKLANRSLASLKLKQNILIAAIIRNNKTIFPTGEDVLTVGDRIVVITLLKNITRTSDMLAREGHHHHHH”, the “soluble on expression in E. coli” value was “soluble”. In the case of “MSLRILLALASLSGNTREVARVIRARCEERGHRVDWIETDLQTLAGQALDPHTYTLFLLGTWTDNAGRTPFEMKRFIVELLELIGKPPSVAVFGTGETQWGQEYYCGAVHRISDFFASRFPRLLIEQMPHGERDALAIVEWTDQVLDQCNKDSDADHYRYVAEGHHHHHH”, the “soluble on expression in E. coli” value was “soluble”. For “MSLRILLVDDVQLDRMQLAIRLKQLGHIVKAVGSGIEALNTYESFDPELVLLDISMPEMNGFEVSLHVRETFPDWIPIIFLSSHEEPEMIAKAIDAGGDDYLIKPVDKLVLNSKLIAMQRIAHMRRELKQATAQLEQVNQLLTQQANEDGLTKLFNRRYIDQKLDSMVAWHGRHHMPMAMILLDVDFFKPFNDNYGHIEGDRCLQAIANQLKATFCRSGEYVGRYGGEEFVVLLSSTDAQTAEREAERIQEAMYFLDYQHEFSSVANRVTVSQGVFVFQPTGKENQADLYATADRALYTSKSLGRNTYTMVNASEGHHHHHH”, the “soluble on expression in E. coli” value was “soluble”. In the case of “MSLRISTNQIYQRGLDNLLTQQERLARLQDQQASGIRVRTPSDDPVASAQIELIKQRINNIELFQNNRQAADSALRLEEGILSNAVNSLHRLREIQIQAGNPSLSEEDRKTLAVEAQALLNQLLDYANTKDSNGSYMFSGSKSLTQPVSLNLSGQYVYNGDSTQRFQAVTTSLLVAVNDTGDNVFMRIPSGNGRFAIRETLTPNTGTASVSSGSVTNEAAFVPDNYTMTFALNSQGNLVVMVSGTLSGNVIPPSGLPDDAPLYQEGSAIGFNGMEMVVSGLPKAGDSFSISPAKNESIFSTVQRMINNLNKPYTSSVEKAATQTENNQLLAQIDSALGHILSVQSDLGARLNQLETAEKANNDYLDISAATLKKLREIDEGHHHHHH”, the “soluble on expression in E. coli” value was “soluble”. With “MSLRLYFVRHGKTQWNLEGRLQGSKGDSPLLKESIEQVSELGHYLSDTHFDLVLSSDLPRAKKTTELIMESQKTKAKITYTKDLREWQLGKLEGQKLSIIQAIYPKEMDAFRHNLANFRANNFQAESVYHTTKRVADLVRTLKDSSMKNVLLVGHGANLTASIRSLLGFEPGLLRKAGGLDNASVTILETDDCEHFTLKSWNDTSYRTQVNKISEGHHHHHH” the “soluble on expression in E. coli” value was “soluble”. For “MSLRNIKWAILGPGTIARDFAKAISEVDNNIYAVASRNIERAKKFANEYKAEKFYGDYDEMLRDENIDVVYISTPHCNHYEYIIKSLENNKHVFCEKAITVNGNQLKEIVDLANKKNLIVREAMTIYHMPLYKKLRELVDEGKIGKVKMIQVSFGSLKEYDVNNRFFSKDLAGGALLDIGTYALSFTRYFLSSQPEEILTTVKKFETGVDEQSGIILKNAEDEMAVISLTMRAKQPKRGVVAGEKAYITVENFPRADKATITYPDGSVEVVEAGETDRALVYEVQDMKACILNKDTDYTLQLSLGVMNIMDEVRSQWGIRYPFEEGHHHHHH”, the “soluble on expression in E. coli” value was “soluble”. For “MSLRPFATKAEADAAVADIRARGRLIVGLDIGSNLFSFRDPITGEITGFDVDIAGEVARDIFGVPSHVEYRILSAAERVTALQKSQVDIVVKTMSITCERRKLVNFSTVYLDANQRILAPRDSPITKVSDLSGKRVCVARGTTSLRRIREIAPPPVIVSVVNWADCLVALQQREIDAVSTDDTILAGLVEEDPYLHIVGPDMADQPYGVGINLDNTGLVRFVNGTLERIRNDGTWNTLYRKWLTVLGEGHHHHHH”, the “soluble on expression in E. coli” value was “soluble”. For “MSLRPTPAPSFSGVTVDGKPFSSASLKGKAYIVNFFATWCPPCRSEIPDMVQVQKTWASRGFTFVGIAVNEQLPNVKNYMKTQGIIYPVMMATPELIRAFNGYIDGGITGIPTSFVIDASGNVSGVIVGPRSKADFDRIVKMALGAKAATKKGIITITTDPNSSSVDKLAAALEHHHHHH”, the “soluble on expression in E. coli” value was “soluble”.

Reference: the DeepSol protein solubility set
